The text below walks through data of patent US7977317B2, “Compositions and methods for modulating blood-brain barrier transport” (Raptor Pharmaceutical Inc., priority 2001, dated 2011).

One assay has as its target LRP (Homo sapiens, UniProt Q07954). Particulars: Tables 1-3; cited from earlier work.
The target in a further assay is VLDL-R (Homo sapiens, UniProt P98155). As to conditions: Tables 1-3; cited from earlier work.
The target in a further assay is Megalin (Homo sapiens, UniProt P98164). As to conditions: Tables 1-3; cited from earlier work.
The target of another assay is T1, ER-2 (Homo sapiens, UniProt Q14114).
T1 sequence (Q14114 33-963): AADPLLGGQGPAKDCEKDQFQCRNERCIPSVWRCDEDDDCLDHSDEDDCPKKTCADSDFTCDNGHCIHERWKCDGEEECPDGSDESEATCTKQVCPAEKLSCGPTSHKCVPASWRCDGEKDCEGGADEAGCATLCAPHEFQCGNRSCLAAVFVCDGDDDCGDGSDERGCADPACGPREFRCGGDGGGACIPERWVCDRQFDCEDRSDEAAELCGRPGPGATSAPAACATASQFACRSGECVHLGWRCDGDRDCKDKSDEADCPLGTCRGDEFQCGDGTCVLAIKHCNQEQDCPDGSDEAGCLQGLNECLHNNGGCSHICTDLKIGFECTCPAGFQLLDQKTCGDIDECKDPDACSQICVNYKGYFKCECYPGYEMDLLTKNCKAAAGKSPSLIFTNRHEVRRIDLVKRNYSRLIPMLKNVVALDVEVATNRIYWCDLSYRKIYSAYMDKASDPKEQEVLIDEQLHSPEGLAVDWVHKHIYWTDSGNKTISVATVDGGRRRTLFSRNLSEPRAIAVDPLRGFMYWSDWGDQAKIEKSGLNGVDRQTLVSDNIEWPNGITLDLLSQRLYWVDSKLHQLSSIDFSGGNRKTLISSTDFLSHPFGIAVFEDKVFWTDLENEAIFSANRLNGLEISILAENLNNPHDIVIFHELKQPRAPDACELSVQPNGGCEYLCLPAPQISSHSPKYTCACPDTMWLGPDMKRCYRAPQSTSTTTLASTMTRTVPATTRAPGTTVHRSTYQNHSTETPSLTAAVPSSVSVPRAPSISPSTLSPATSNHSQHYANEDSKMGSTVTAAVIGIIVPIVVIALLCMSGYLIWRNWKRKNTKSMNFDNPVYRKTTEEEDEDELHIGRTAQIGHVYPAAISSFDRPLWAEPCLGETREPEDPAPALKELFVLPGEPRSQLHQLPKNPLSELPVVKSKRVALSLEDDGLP
Particulars: Tables 1-3; cited from earlier work.

The next assay concerns the target LR11 (Homo sapiens, UniProt Q92673). As to conditions: Tables 1-3; cited from earlier work.
For another assay, the target named is LDL-R (Homo sapiens, UniProt P01130). Particulars: Tables 1-3; cited from earlier work.
For another assay, the system named is human brain capillaries. In words: Accumulation/uptake of [125I]-p97 in isolated human brain capillaries. The assay is classed as binding. As to the method:
FIG. 5. Accumulation of p97 in human brain capillaries. Accumulation of [^125I]-p97 was measured at 37° C. for 1 h in isolated human brain capillaries (100 μg/assay). The incubation medium contained [^125I]-p97 and a final concentration of 100 nM p97 in Ringer/Hepes solution. The accumulation of [^125I]-p97 was performed in the presence or absence of 5 μm cold-p97, holo-transferrin or lactoferrin. […] The suspension was filtered under vacuum through a […] pore size Millipore filter. The filter was rinsed with 8 ml of stop solution, and the radioactivity was counted. Nonspecific binding of the radioactivity to the capillaries was determined by the addition of the ice-cold stop solution to the capillaries before adding the incubation medium. This value was subtracted from accumulation values obtained following an 1 h incubation. The results were expressed as ng of [^125I]-p97 accumulated per μg of brain capillaries.
FIG. 16 illustrates the identification of a p97 receptor according to ligand specificity. FIG. 16a, Uptake of [^125I]-p97 into human brain capillaries. The uptake of [^125I]-p97 at 100 nM (control) into isolated human brain capillaries was measured for 1 h at 37° C. in the presence of a 50-fold molar excess of unlabelled p97, human holo-transferrin or human lactoferrin. (*[…] Student's t-test (n=5); FIG. 16b, Effect of RAP on [^125I]-p97 transcytosis across BBCEC monolayers. Apical-to-basal transport of [^125I]-p97 was measured in the presence (closed circles) or absence (open circles) of RAP (25 μg/ml) (n=5); FIG. 16c, Inhibition of bovine [^125I]-lactoferrin transport by p97. Transcytosis of bovine [^125I]-lactoferrin (50 nM) was measured in the presence (closed circles) or absence (open circles) of unlabelled p97 (5 μM) at 37° C. (n=3).
A. Isolation of human brain capillaries. Capillaries of the blood-brain barrier were isolated from human brain cortex by a procedure previously described by Dallaire, et al., J. Biol. Chem., 267:22323-22327 (1992) with slight modifications. Human brains were obtained post-mortem. The brain was cleared of meninges, superficial large blood vessels and choroid plexus. All the following procedures were performed at 4° C. The cerebral cortex was homogenized in 5 volumes of Ringer/Hepes solution with a Polytron (Brinkman Instruments, Rexdale, Ontario, Canada). The homogenate was mixed with an equal volume of Dextran T-70 (27 g in 100 ml of Ringer/Hepes). The suspension was centrifuged at 25,000 g for 10 min. The pellet was resuspended in 30 ml of Ringer/Hepes and passed through a 250 μm nylon mesh screen. […]
B. p97 accumulation in human brain capillaries. […] Accumulation of [^125I]-p97 was measured at 37° C. for 1 h in isolated human brain capillaries (100 μg/assay). […]

A further assay concerns BBCEC monolayers. The assay can be described thus: Transcytosis across BBCEC monolayers (in vitro BBB model). In kind it is cell-based, bovine. From the text:
FIG. 10 assesses the ability of several agents to interfere with p97 transyctosis. FIG. 10a, transcytosis of I125-P97 was compared in the presence of cold p97 (5 micromolar), Lf (5 micromolar), and Tf (5 micromolar). […] FIG. 10c, RAP, a known poly-peptide inhibitor of the LDL-Receptor family was applied to the cells (25 micrograms/ml).
FIG. 11 examines the accumulation and transcytosis of p97. FIG. 11a, of [^125I]-p97, [^125I]-BSA and [^125I]-holo-transferrin one hour after i.v. injection. The radioactivity in brain was compared between the three compounds. (n=3); FIG. 11b, Accumulation of p97 and transferrin into the mouse brain parenchyma. In situ brain perfusion was performed with human [^125I]-p97 or [^125I]-holo-transferrin at a final concentration of 10 nM via a catheter inserted in the right common carotid artery. The volume of distribution (VD) of [^125I]-proteins were obtained in the whole brain homogenate (white bars), in brain capillaries (solid bars) and in brain parenchyma (hatched bars) after isolation of the right hemisphere and capillary depletion. Results were obtained for p97 (n=10) and for holo-transferrin (n=6); FIG. 11c, Transcytosis of p97 across BBCEC monolayers. Transcytosis experiments were performed 37° C. (open circles) and 4° C. (closed circles) with BBCEC monolayers. [^125I]-p97 (1 mg/ml) was added to the upper side of the cell-covered filter. One representative experiment is shown (n=4); FIG. 11d, Preferential transport of p97 across the BBCEC monolayers. Apical-to-basal and basal-to-apical transport of [^125I]-p97 (25 nM) was measured for 2 hrs at 37° C. At the end of the experiment, [^125I]-p97 was assessed in the lower or upper chambers of each well by TCA precipitation (n=4).
FIG. 13 illustrates the transcytosis and accumulation of p97 and transferrin in BBCEC monolayers. FIG. 13a, Transcytosis experiments were performed at 37° C. (solid bars) or 4° C. (white bars). [^125I]-p97 or bovine [^125I]-holo-transferrin (1 mg/ml) was added to the upper side of the cell-covered filter. At the end of the experiment, radiolabelled proteins were measured in the lower chamber of each well by TCA precipitation (n=4). Controls were also performed at 37° C. with denatured [^125I]-p97 or bovine [^125I]-holo-transferrin boiled for 30 min (grey bars) (n=2); FIG. 13b, Biospecific interaction analysis was performed with native or boiled p97 for the indicated times. MAb L235 (5 μg) was immobilized on a sensor chip (SM5) using standard procedures incorporating NHS, EDC and ethanolamine. Native and boiled p97 (5 to 30 min) diluted at 1 mg/ml in Ringer/Hepes was cooled and injected into the BIAcore. The surface plasmon resonance response obtained for native p97 and boiled p97 was plotted (in relative units (RU)) as a function of time; FIG. 13c, The accumulation of both proteins into BBEC cells were also measured. Briefly, after incubation at 37° C. (solid bars) or 4° C. (white bars) with either [^125I]-protein, cells were washed four times with cold PBS. Accumulation of both denatured proteins (grey bars) was also measured at 37° C. Filters were then removed, and the radioactivity associated with the cells was quantified (n=3).
FIG. 14 illustrates the stability of p97 and integrity of the BBCEC monolayers following p97 transcytosis. FIG. 14a, Transcytosis experiments were performed at 37° C. and 4° C. by adding p97 (1 mg/ml) to the upper compartment. At the end of the experiment, 50 μl from each lower chamber was used for SDS-polyacrylamide gel electrophoresis. After electrophoresis, the gels were stained with Coomassie Blue. A standard curve was also made with known amounts of recombinant p97 (0-2 μg); FIG. 14b. The gels were dried and scanned to quantify the amount of intact p97 that crossed the BBCEC monolayers at 37° C. and 4° C. (n=3); FIG. 14c, Effect of p97 on sucrose permeability of BBCE cell monolayers co-cultured with astrocytes. […]

LRP, sequence (Q07954 20-4544): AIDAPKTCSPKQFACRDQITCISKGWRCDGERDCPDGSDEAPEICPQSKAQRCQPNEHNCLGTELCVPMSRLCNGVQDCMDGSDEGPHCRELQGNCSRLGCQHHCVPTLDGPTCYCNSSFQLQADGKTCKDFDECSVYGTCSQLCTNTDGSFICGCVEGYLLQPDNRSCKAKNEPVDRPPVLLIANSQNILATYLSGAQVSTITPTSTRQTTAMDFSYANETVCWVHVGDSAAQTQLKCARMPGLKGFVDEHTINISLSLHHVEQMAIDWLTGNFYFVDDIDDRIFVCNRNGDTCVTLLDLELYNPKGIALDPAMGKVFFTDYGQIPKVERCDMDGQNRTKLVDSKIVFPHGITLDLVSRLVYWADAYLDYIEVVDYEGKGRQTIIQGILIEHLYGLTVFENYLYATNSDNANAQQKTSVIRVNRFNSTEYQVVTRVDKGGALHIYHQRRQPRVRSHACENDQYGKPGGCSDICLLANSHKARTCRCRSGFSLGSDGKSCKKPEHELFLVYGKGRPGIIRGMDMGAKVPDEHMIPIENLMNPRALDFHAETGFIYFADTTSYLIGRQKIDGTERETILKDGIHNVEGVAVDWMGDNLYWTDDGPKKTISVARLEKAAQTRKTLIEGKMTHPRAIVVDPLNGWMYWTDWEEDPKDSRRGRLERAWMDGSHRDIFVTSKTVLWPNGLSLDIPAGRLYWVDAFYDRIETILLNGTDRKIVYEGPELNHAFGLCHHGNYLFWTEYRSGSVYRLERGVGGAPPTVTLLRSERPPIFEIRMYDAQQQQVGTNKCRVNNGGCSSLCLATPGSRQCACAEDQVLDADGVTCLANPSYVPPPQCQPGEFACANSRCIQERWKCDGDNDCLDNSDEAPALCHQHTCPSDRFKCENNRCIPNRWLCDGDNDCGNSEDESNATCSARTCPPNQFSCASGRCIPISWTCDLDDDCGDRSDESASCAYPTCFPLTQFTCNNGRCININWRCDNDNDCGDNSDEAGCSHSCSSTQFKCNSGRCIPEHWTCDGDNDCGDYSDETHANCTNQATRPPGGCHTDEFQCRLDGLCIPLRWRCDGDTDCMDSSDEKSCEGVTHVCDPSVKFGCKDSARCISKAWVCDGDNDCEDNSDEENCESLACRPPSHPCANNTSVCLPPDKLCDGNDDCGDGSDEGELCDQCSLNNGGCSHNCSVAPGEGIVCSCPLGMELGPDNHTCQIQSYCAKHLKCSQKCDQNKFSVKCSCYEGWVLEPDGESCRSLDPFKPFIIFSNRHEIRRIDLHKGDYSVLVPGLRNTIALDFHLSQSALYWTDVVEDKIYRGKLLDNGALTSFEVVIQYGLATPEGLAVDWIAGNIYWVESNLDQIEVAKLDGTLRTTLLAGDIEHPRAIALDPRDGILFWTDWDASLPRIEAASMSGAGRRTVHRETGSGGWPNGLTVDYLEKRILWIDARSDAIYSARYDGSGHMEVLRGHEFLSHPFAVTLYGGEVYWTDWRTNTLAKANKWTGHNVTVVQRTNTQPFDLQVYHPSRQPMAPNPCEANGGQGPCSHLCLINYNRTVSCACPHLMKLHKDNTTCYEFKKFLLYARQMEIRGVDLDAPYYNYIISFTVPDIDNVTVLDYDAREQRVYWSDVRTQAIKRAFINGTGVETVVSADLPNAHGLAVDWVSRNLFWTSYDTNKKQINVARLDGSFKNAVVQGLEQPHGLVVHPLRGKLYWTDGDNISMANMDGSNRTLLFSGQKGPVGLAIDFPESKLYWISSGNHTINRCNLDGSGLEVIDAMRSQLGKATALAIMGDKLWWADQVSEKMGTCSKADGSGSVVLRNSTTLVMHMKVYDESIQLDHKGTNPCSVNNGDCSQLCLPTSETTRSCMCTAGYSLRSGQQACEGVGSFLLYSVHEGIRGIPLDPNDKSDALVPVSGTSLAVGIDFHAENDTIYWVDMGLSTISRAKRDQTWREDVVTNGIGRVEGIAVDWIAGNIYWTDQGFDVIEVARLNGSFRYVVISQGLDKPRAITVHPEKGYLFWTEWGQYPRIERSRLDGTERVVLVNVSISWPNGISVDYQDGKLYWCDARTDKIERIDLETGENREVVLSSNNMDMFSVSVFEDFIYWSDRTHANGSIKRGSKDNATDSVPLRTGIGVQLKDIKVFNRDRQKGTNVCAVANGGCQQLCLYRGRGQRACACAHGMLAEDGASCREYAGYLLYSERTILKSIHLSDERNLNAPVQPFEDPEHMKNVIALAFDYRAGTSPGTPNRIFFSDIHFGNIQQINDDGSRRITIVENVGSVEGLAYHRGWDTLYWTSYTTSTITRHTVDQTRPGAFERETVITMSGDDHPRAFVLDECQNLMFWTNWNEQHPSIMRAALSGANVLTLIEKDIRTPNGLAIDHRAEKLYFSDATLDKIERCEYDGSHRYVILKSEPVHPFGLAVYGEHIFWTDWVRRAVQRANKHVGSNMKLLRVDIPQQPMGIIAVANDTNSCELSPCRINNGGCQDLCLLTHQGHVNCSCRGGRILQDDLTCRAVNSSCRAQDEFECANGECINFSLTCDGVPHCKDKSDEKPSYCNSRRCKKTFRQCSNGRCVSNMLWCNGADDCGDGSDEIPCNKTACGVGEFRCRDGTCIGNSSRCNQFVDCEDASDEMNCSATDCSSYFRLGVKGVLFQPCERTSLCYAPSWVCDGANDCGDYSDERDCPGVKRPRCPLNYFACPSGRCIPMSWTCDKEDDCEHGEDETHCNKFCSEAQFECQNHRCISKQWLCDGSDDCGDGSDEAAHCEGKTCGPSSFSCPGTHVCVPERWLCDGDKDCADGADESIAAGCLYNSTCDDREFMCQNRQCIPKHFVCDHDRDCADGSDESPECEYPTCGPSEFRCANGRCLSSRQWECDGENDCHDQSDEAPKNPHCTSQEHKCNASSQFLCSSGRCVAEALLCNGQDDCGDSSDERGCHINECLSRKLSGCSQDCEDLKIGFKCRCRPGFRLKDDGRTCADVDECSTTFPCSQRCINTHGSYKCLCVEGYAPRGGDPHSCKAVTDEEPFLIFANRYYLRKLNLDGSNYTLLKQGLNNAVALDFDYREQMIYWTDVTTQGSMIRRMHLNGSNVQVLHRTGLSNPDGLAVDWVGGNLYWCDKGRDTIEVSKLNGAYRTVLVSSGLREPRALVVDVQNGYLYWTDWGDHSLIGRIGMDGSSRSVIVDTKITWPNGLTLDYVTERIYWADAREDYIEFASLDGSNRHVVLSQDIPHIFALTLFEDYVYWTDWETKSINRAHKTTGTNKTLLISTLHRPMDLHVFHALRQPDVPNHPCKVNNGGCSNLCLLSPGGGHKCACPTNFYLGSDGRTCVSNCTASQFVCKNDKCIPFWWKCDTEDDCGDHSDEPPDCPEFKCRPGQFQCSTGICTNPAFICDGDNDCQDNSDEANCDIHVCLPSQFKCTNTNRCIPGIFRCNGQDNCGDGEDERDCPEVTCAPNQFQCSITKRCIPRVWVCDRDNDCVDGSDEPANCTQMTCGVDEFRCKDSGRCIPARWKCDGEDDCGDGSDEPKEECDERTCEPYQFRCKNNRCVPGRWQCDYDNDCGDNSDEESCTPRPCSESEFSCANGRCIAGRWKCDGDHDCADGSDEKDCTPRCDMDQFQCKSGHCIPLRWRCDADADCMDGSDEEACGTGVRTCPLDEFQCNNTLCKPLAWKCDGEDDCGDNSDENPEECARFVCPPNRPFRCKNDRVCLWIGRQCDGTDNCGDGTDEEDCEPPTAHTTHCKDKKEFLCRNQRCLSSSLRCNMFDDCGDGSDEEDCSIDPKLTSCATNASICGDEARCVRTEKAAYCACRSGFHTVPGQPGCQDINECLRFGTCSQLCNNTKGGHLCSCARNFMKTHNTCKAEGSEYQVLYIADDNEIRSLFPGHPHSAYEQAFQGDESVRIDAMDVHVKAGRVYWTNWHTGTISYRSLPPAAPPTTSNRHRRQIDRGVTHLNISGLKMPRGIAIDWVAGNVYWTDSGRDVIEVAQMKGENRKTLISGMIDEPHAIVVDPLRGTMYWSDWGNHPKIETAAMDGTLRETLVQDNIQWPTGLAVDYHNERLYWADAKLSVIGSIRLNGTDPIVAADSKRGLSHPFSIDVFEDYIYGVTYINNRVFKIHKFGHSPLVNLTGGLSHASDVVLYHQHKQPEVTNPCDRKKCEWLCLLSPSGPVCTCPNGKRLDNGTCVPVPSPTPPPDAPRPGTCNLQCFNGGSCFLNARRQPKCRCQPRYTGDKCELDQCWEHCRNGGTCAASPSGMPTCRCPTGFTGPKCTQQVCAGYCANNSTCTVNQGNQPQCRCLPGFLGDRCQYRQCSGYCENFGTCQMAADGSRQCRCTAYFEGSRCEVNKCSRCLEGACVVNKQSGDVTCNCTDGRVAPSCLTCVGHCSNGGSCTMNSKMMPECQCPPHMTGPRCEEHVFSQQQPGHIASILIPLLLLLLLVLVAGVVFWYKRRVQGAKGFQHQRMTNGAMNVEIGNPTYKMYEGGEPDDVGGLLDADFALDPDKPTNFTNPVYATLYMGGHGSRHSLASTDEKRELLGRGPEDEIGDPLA

Take Thrombospondin-1: thrombospondin-1: the “Binding to LRP” value with LRP is reported as “Yes”. Besides, the “Binding to VLDL-R” value in the assay with VLDL-R is “Yes”.
As to Gentamycin [reference compound], the “Binding to LRP” value on LRP was “Yes”. The “Binding to Megalin” value on Megalin was “Yes”.
With Thyroglobulin: thyroglobulin, the “Binding to Megalin” value with Megalin is “Yes”. Also, the “Binding to ER-2” value with ER-2 is given as “Yes”. The “Binding to LR11” value with LR11 is on record as “Yes”.
For Plasminogen: plasminogen, in the assay with Megalin, the “Binding to Megalin” value is reported as “Yes”.
Regarding “Activated α2-macroglobulin: activated α2-macroglobulin”, the “Binding to LRP” value with LRP is recorded as “Yes”. For the same substance, in the assay with Megalin, the “Binding to Megalin” value is given as “No”.
Consider ApoJ/clusterin: ApoJ/clusterin, for which the “Binding to Megalin” value in the assay with Megalin is “Yes”.
Consider “Tissue factor inhibitor: tissue factor inhibitor”, for which, in the assay with LRP, the “Binding to LRP” value is “Yes”.
Turning to Polymixin B [reference compound], on LRP, the “Binding to LRP” value is recorded as “Yes”. The “Binding to Megalin” value at Megalin is “Yes”.
For Pseudomonas Exotoxin A, the “Binding to LRP” value with LRP is on record as “Yes”. For the same substance, the “Binding to Megalin” value with Megalin was “No”.
As for “α1-chymotrypsin/cathepsin G: protease/inhibitor complex”, the “Binding to LRP” value with LRP was “No”. The “Binding to Megalin” value with Megalin is “Yes”.
For ApoB100: apolipoprotein B 100, the “Binding to LDL-R” value with LDL-R is given as “Yes”. Besides, the “Binding to Megalin” value in the assay with Megalin is recorded as “Yes”.
For “human holo-transferrin: human holo-transferrin”, in the assay with human brain capillaries (50-fold molar excess, [125I]-p97 100 nM, 1 h at 37° C. (FIG. 16a)), the “Inhibition of the uptake of [125I]-p97 into isolated human brain capillaries” value is given as “had no effect”. Besides, the “Reduction of apical-to-basal transport of [125I]-p97” value in the assay with BBCEC monolayers (200-fold molar excess of competitor, [125I]-p97 25 nM (FIG. 15a, 15b)) is recorded as “had no impact”.
Regarding βAPP: β-amyloid precursor protein, the “Binding to LRP” value in the assay with LRP was “Yes”. In addition, the “Binding to VLDL-R” value in the assay with VLDL-R was “Yes”.
Turning to tPA: tissue type plasminogen activator, the “Binding to LRP” value in the assay with LRP is reported as “Yes”. Besides, the “Binding to Megalin” value with Megalin is listed as “Yes”.
Turning to ApoE: Apolipoprotein E, the “Binding to LRP” value in the assay with LRP is reported as “Yes”. Also, the “Binding to Megalin” value with Megalin is on record as “Yes”. Besides, the “Binding to VLDL-R” value with VLDL-R is “Yes”. Moreover, in the assay with ER-2, the “Binding to ER-2” value is “Yes”. Besides, the “Binding to LR11” value with LR11 is on record as “Yes”.
As for Albumin, the “Binding to Megalin” value on Megalin is “Yes”.
For “β-amyloid peptide 1-40: β-amyloid peptide 1-40 [reference compound]”, the “Competition with p97 for receptor binding in human brain capillaries, repeat experiment” value in the assay on human brain capillaries (performed identically to FIG. 5 (FIG. 6)) is recorded as “competes with p97 for receptor binding”. In addition, the “Effect on transcytosis of 125I-p97” value with BBCEC monolayers (competitor 5 micromolar (FIG. 10a, 10b)) is given as “failed to slow or reduce”.
